Data as given in US20190284242A1 (University of Washington, published 2019).

T1: I52-33B
T1 construct: also called dimer component of I52-33
T1 chain: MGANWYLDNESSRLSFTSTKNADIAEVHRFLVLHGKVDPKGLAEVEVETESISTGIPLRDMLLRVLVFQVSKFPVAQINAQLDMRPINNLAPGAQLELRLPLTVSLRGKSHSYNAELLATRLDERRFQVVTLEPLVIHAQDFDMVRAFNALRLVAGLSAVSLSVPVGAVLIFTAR

B1: I32-06A (designed binder)
chain: MTDYIRDGSAIKALSFAIILAEADLRHIPQDLQRLAVRVIHACGMVDVANDLAFSEGAGKAGRNALLAGAPILCDARMVAEGITRSRLPADNRVIYTLSDPSVPELAKKIGNTRSAAALDLWLPHIEGSIVAIGNAPTALFRLFELLDAGAPKPALIIGMPVGFVGAAESKDELAANSRGVPYVIVRGRRGGSAMTAAAVNALASERE
notes: also called dimer component of I32-06
B2: I52-33A (designed binder)
chain: MAVKGLGEVDQKYDGSKLRIGILHARWNRKIILALVAGAVLRLLEFGVKAENIIIETVPGSFELPYGSKLFVEKQKRLGKPLDAIIPIGVLIKGSTMHFEYICDSTTHQLMKLNFELGIPVIFGVLTCLTDEQAEARAGLIEGKMHNHGEDWGAAAVEMATKFN
notes: also called pentamer component of I52-33

How the values were obtained:
I32-06B = target: T2, I32-06B; experiment: negative stain electron microscopy class averages of the assembled nanostructure
T2 construct: also called trimer component of I32-06

I52-33B = target: T1, I52-33B; experiment: size exclusion chromatography (Superose 6 10/300) of co-expressed, purified pair

T2 sequence (chain, as listed by the source): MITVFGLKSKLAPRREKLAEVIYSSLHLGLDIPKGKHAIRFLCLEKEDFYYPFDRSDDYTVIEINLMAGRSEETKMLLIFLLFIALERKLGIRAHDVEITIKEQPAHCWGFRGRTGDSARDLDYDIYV

Row | Binder | binding result (I32-06B) | binding result (I52-33B)
1 | B1 | binds | 
2 | B2 |  | binds
